Patent US9403884B2, “Peptides useful as cell-penetrating peptides” (Evonik Roehm GmbH, priority 2005, dated 2016)
fluorescein = fluorescein label (fluorescent marker on the peptide)

Tests used:
[1] = system: HeLa cells; test: Cytotoxicity of hLF-peptide, cell viability by MTT test; type: cell-based, human; conditions: FIG. 6
Method: However, for live cell microscopy of peptide uptake mostly rather short incubation times of less than one hour were employed. It was therefore also tested whether for longer incubation times and higher concentrations, the peptide affected cell viability. HeLa cells were incubated with the hLF-peptide at concentrations ranging from 1.25 μM to up to 160 μM for either 6 or 0.5 hours. Afterwards cell viability was determined using an MTT test. The result thereof are depicted in FIG. 6.

[2] = system: HeLa cells; test: Cytotoxic effects observed during the uptake experiments (flow cytometry, live cell microscopy); type: cell-based, human; conditions: concentration range of up to 40 μM, mostly incubation times of less than one hour

Fluo-KCFQWQRNMRKVRGPPVSCIKR-CONH2 (fluorescein-KCFQWQRNMRKVRGPPVSCIKR-NH2; cysteine pairing not given here; listed as Homo sapiens) [hLF-peptide]
cell viability (MTT) ([1]; after 6 hours, peptide concentrations higher than 5 μM): slightly reduced
cell viability (MTT) ([1]; concentrations higher than 40 μM (tested up to 160 μM)): all cells were killed
cytotoxicity (MTT cell viability) ([1]; incubated 30 minutes, concentrations up to 40 μM): no cytotoxicity was observed
cytotoxic effects in the uptake experiments [2]: no cytotoxic effects could be observed
